# From patent US20210363204A1
# Target: human Nav1.7, Q15858
# Conditions: chains peptide; modification not given
binder,measurement,value
GPYCQKWMWTCDSERKCCEGMVCRLWCKKKLW [recombinant Protoxin-II],IC50,62 nM
